Data published in patent US20250223627A1, “FLUOROGENIC SUBSTRATES FOR AMINOPEPTIDASE DETECTION IN BIOFLUIDS” (GLYMPSE BIO, INC., priority 2022, published 2025).

Legend:
NASH-related proteases = assay: Probe cleavage in mouse plasma, NASH vs healthy (RFU per minute); format: biochemical; settings: for disease contrast (NASH vs healthy): mouse plasma; for ability to distinguish (differentiate) between NASH and healthy samples: activity as RFU per minute in 1% mouse plasma, NASH (CDAHFD) vs healthy (CD)
Experimental: All animals were used in accordance with animal care guidelines. Plasma was obtained from these blood samples by centrifugation at 3,500 RPM for 20 min at 4° C. The plasma was stored at −80° C. until it was needed for experimental purposes.
Samples were mixed with protease substrates and quenchers/reporters in 96-well plates. The 96-well plates were read on a Biotech Synergy H1, using 465,535 excitation/emission settings.
The probes of the present application were able to measure the activity of NASH-related proteases as expressed in Relative Fluorescent Unit (RFU) per minute in the two mouse populations. Probes measuring cathepsin activity were 3-fold higher in protease cleavage kinetics in mice with NASH compared to healthy mice.
Using the method of the above example, PEGylated probes were used to measure the activity of NASH-related proteases, as expressed in RFU per minute in 1% mouse plasma samples.

DPP4 = DPP4 (Homo sapiens, UniProt P27487); assay: Recombinant protease panel, probe cleavage: dpp4; format: biochemical; settings: expressed in RFU per minute
Experimental: Substrate plates were thawed and spun down for 5 minutes to ensure the substrates were at the bottom of the wells. Proteases for each substrate plate were prepared by adding 1 protease per plate. Proteases were then diluted to 15 nM in 2 mL of specified protease buffer (see Table 5). Assay buffer was added to control wells while […] active enzyme in assay buffer was added to each sample well. Plates were spun down and then read immediately after centrifugation.

[1] = tested on: Probe #762, K(Acc)(Pro-4-Obzl)G(PEG8)K(Dnp)k
[2] = tested on: Probe #766, K(Acc)(Hyp)G(PEG8)K(Dnp)k
[3] = tested on: Probe #768, K(Acc)(Sar)G(PEG8)K(Dnp)k
[4] = tested on: most other probes (FIG. 16)

Chain of DPP4 (P27487 whole entry, species assumed): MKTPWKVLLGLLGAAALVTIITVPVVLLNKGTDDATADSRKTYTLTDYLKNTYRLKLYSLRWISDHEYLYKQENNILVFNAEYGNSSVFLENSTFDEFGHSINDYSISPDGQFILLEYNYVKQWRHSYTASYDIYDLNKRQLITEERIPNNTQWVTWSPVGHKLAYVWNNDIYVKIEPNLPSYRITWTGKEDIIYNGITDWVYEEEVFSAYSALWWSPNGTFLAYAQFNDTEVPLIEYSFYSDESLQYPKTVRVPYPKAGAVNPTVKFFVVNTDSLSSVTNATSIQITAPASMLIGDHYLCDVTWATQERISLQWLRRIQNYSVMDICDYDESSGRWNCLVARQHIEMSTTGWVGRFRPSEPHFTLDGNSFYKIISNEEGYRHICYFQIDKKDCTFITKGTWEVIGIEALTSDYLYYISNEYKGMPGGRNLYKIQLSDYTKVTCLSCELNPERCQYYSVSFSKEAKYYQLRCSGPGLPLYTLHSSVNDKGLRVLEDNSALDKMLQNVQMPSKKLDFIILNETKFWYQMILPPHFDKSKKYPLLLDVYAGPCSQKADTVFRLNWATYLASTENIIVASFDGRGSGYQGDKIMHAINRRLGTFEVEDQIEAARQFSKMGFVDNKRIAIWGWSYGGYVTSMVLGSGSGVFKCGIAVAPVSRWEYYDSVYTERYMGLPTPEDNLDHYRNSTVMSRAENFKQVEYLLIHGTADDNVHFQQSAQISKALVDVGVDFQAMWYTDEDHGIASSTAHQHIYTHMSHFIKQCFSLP

In the case of AK(Acc)G-PEG8-K(Dnp)-k [Probe #680], the “disease contrast (NASH vs healthy)” value (NASH-related proteases) is reported as “Lys-Ala motif of Probe #678 (FIG. 13A) displays stronger disease contrast than the Ala-Lys motif of Probe #680”.
K(Acc)AG-PEG8-K(Dnp)-k [Probe #678] was tested, and the “DPPIV (DPP4) protease activity on the probe (cleavage)” value (DPP4) was “needed for measuring DPPIV activity”, the “ability to distinguish (differentiate) between NASH and healthy samples” value (NASH-related proteases) was “ability to distinguish between NASH and healthy samples” and the “ability to distinguish (differentiate) between NASH and healthy samples” value (NASH-related proteases; listed as probe 678) was “able to differentiate between NASH and healthy samples”. The “disease contrast (NASH vs healthy)” value (NASH-related proteases) was “stronger disease contrast than the Ala-Lys motif of Probe #680”.
With aminopeptidase n/CD13 the “hydrolysis of fluorogenic probe by protease” value (from here on “hydrolysis”) [1] was “evade hydrolysis from Aminopeptidase N”, the “hydrolysis” value [2] was “evade hydrolysis from Aminopeptidase N” and the “hydrolysis” value [3] was “evade hydrolysis from Aminopeptidase N”. For the same substance, the “hydrolysis” value [4] was “most other probes are susceptible to cleavage”.
In the case of dipeptidyl-peptidase 4 (DPP4 or DPPIV), the “cleavage of fluorogenic substrate (fluorescence over time)” value (a substrate (FIG. 19C)) is reported as “a substrate is rapidly cleaved by DPP4 (square markers) but remains intact in buffer alone with no protease present”, the “cleavage of fluorogenic probe by protease panel” value (shortened to “cleavage of fluorogenic probe”) [2] is reported as “selective for dipeptidyl peptidases with strong preferences for DPP4” and the “cleavage of fluorogenic probe” value [3] is reported as “selective for dipeptidyl peptidases with strong preferences for DPP4”.
In the case of dpp2/7, the “cleavage of fluorogenic probe” value [1] is reported as “Probe #762 is selective for DPP2”.
